The record followed here is the supplement of paper PMC9732359.

± gives the uncertainty stated by the source.

A short description of the data set: protein stability index of a GFP-peptide fusion (yeast GPS) (PSI 1-4); higher = more stable; sorted into four equal gates, so the index is relative within each strain. The essentials:
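Yeast carrying a pooled library were grown to mid-log phase in leucine-free medium. Each library plasmid expresses Cherry and has a tiled 17-residue yeast protein peptide fused downstream of GFP. Cells were sorted into four equal gates by GFP/Cherry ratio, and plasmids from each gate were PCR-amplified, Illumina-sequenced and assigned to strains by barcode. Summing, across gates, the read frequency times the gate number gave each peptide's protein stability index.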

On to KGRFAVHRITDEEASYK [RPS4A], for which the protein stability index (doa10∆) is 3.13 ± 0.075, the protein stability index (pdr5∆) amounted to 3.2 ± 0.091, the protein stability index (san1∆) is 3.35 ± 0.061 and the protein stability index (ubr1∆) came out at 3.33 ± 0.07.

Consider FLQKFEIAFHLTLIFYD [YML103C/NUP188], for which the protein stability index by setting is: (doa10∆) 1.49 ± 0.083; (pdr5∆) 1.46 ± 0.044; (san1∆) 1.41 ± 0.12; (ubr1∆) 1.35 ± 0.052.

On to GKGTGKTAMAELALLNH [BRR2], for which the protein stability index came out at 3.19 ± 0.11 (doa10∆), 3.51 ± 0.15 (pdr5∆), 3.45 ± 0.099 (san1∆) and 3.22 ± 0.082 (ubr1∆).

In the case of LLSSESNIPTLIEKLQG [YDL116W/NUP84], the protein stability index is, setting by setting: (doa10∆) 2.42 ± 0.091; (pdr5∆) 3.01 ± 0.11; (san1∆) 2.6 ± 0.047; (ubr1∆) 3.07 ± 0.072.

Take LLFAINSYQPSPFFVLD [SMC1]: the protein stability index was determined as 2.16 ± 0.06 (doa10∆), 2 ± 0.078 (pdr5∆), 2.23 ± 0.082 (san1∆) and 2.57 ± 0.044 (ubr1∆).

As for LLMSCPRLSHLSLTAVP [GRR1], the protein stability index was 1.9 ± 0.051 (doa10∆), 1.57 ± 0.054 (pdr5∆), 1.63 ± 0.12 (san1∆) and 2.19 ± 0.059 (ubr1∆).

Regarding FEPSISRSNFQGKHTKF [LRP1], the protein stability index worked out at 3.2 ± 0.1 (doa10∆), 3.26 ± 0.15 (pdr5∆), 2.97 ± 0.14 (san1∆) and 3.28 ± 0.094 (ubr1∆).

KENDTVMNTKLLQEGGS [ESC2]: the protein stability index is, setting by setting: (doa10∆) 3.16 ± 0.12; (pdr5∆) 3.2 ± 0.092; (san1∆) 3.04 ± 0.078; (ubr1∆) 3.21 ± 0.076.

DLQNLNLNTDKLKNNAS [YJL039C/NUP192]: the protein stability index by setting is: (doa10∆) 2.54 ± 0.11; (pdr5∆) 2.65 ± 0.061; (san1∆) 2.94 ± 0.086; (ubr1∆) 2.5 ± 0.057.

Regarding EDTNLAAIHAKRVTIQK [HHT1], the protein stability index came out at 2.88 ± 0.078 (doa10∆), 3.04 ± 0.099 (pdr5∆), 2.97 ± 0.059 (san1∆) and 2.92 ± 0.056 (ubr1∆).

The sequence YEHNGRTLEAITATLVG [CSL4] showed a protein stability index (doa10∆) of 2.03 ± 0.051, a protein stability index (pdr5∆) of 2.05 ± 0.051, a protein stability index (san1∆) of 1.83 ± 0.066 and a protein stability index (ubr1∆) of 2.04 ± 0.038.

As to NDSENNSSEEDKKKGQN [ITC1], the protein stability index runs as follows: (doa10∆) 2.24 ± 0.073; (pdr5∆) 2.53 ± 0.11; (san1∆) 2.68 ± 0.12; (ubr1∆) 2.86 ± 0.1.

On to DAISQVINIAKAHPNFP [FAS1], for which the protein stability index is, setting by setting: (doa10∆) 1.41 ± 0.076; (pdr5∆) 2.65 ± 0.095; (san1∆) 2.03 ± 0.26; (ubr1∆) 2.91 ± 0.082.

As to LIECLLSKVAALSGNEG [RPB2], the protein stability index was 1.47 ± 0.079 (doa10∆), 1.74 ± 0.098 (pdr5∆), 1.89 ± 0.11 (san1∆) and 1.27 ± 0.08 (ubr1∆).

Regarding NNSDDEDVDDEELDITP [IRR1], the protein stability index came to 3.25 ± 0.099 (doa10∆), 3.46 ± 0.11 (pdr5∆), 3.58 ± 0.083 (san1∆) and 3.31 ± 0.077 (ubr1∆).

On to NVVLVTNDRLNREAATK [DIS3], for which the protein stability index is, setting by setting: (doa10∆) 2.33 ± 0.086; (pdr5∆) 2.9 ± 0.088; (san1∆) 1.89 ± 0.21; (ubr1∆) 2.37 ± 0.074.

NNVKQMVMAGSKGSFIN [RPO21] gave a protein stability index (doa10∆) of 1.57 ± 0.091, a protein stability index (pdr5∆) of 1.78 ± 0.095 and a protein stability index (ubr1∆) of 1.94 ± 0.068.

KRVSGTSQHSDSLTQNN [YOR098C/NUP1]: the protein stability index is, setting by setting: (doa10∆) 2.5 ± 0.088; (pdr5∆) 2.71 ± 0.055; (san1∆) 2.73 ± 0.072; (ubr1∆) 2.68 ± 0.054.

In the case of MKTNVHTQANEPNSAKK [RGR1], the protein stability index runs as follows: (doa10∆) 3.02 ± 0.11; (pdr5∆) 3.14 ± 0.089; (san1∆) 3.06 ± 0.086; (ubr1∆) 3.24 ± 0.11.

In turn, KLKEYLDLVARTATLSN [YDL116W/NUP84] returned a protein stability index (doa10∆) of 2.63 ± 0.23, a protein stability index (pdr5∆) of 2.88 ± 0.16, a protein stability index (san1∆) of 2.99 ± 0.1 and a protein stability index (ubr1∆) of 2.74 ± 0.15.

IIVQYLTKFRQKLMQLV [RGR1]: the protein stability index is, setting by setting: (doa10∆) 2.65 ± 0.089; (pdr5∆) 2.88 ± 0.16; (san1∆) 2.56 ± 0.083; (ubr1∆) 2.46 ± 0.1.

TSASQPFKFGKTSEKSE [YOR098C/NUP1] registered a protein stability index (doa10∆) of 3.1 ± 0.14, a protein stability index (pdr5∆) of 3.22 ± 0.15, a protein stability index (san1∆) of 2.96 ± 0.13 and a protein stability index (ubr1∆) of 3.17 ± 0.093.

As for LSSLKSFAIYSSTIDAP [SRB8], the protein stability index is, setting by setting: (doa10∆) 1.71 ± 0.038; (pdr5∆) 1.57 ± 0.034; (san1∆) 1.83 ± 0.064; (ubr1∆) 1.73 ± 0.038.

Take FFDPKPFDQNLDSNNNN [SWI1]: the protein stability index is, setting by setting: (doa10∆) 2.98 ± 0.085; (pdr5∆) 2.83 ± 0.092; (san1∆) 3.14 ± 0.048; (ubr1∆) 2.88 ± 0.069.

In turn, LALKLELLDFLTSNLSN [YJL039C/NUP192] had a protein stability index (doa10∆) of 2.55 ± 0.053, a protein stability index (pdr5∆) of 2.26 ± 0.043, a protein stability index (san1∆) of 2.45 ± 0.049 and a protein stability index (ubr1∆) of 2.65 ± 0.043.

VEFCGYSIPHPSENLLN [RPC19] displayed a protein stability index (doa10∆) of 2.7 ± 0.077, a protein stability index (pdr5∆) of 3.05 ± 0.062, a protein stability index (san1∆) of 2.92 ± 0.05 and a protein stability index (ubr1∆) of 2.95 ± 0.074.

For the sequence VKLKQQKVNAVDSTFQK [SMC3], the protein stability index was 2.9 ± 0.19 (pdr5∆), 3.36 ± 0.15 (san1∆) and 3.29 ± 0.062 (ubr1∆).

With ITMESVHEWEVSKPSLL [PRP8], the protein stability index turned out to be 3.29 ± 0.069 (doa10∆), 3.29 ± 0.069 (pdr5∆), 3.29 ± 0.066 (san1∆) and 3.24 ± 0.056 (ubr1∆).

On to SYESLKKRKIHNGREGS [MCD1], for which the protein stability index (doa10∆) worked out at 1.7 ± 0.04, the protein stability index (pdr5∆) came to 1.91 ± 0.041, the protein stability index (san1∆) turned out to be 1.69 ± 0.062 and the protein stability index (ubr1∆) was determined as 2 ± 0.032.

For the sequence IDSPELLSLISTTAALQ [RPN7], the protein stability index (doa10∆) was 2.23 ± 0.04, the protein stability index (pdr5∆) came to 2.65 ± 0.041, the protein stability index (san1∆) came to 2.32 ± 0.041 and the protein stability index (ubr1∆) stood at 2.45 ± 0.032.

For the sequence EIDHVEYYVMMDFANLW [SRB8], the protein stability index (doa10∆) came out at 2.98 ± 0.067, the protein stability index (pdr5∆) was determined as 2.69 ± 0.054, the protein stability index (san1∆) worked out at 2.81 ± 0.056 and the protein stability index (ubr1∆) stood at 2.92 ± 0.036.

In the case of EISSQIEILVKDNECSS [RRI2], the protein stability index is 1.5 ± 0.11 (doa10∆), 1.25 ± 0.15 (pdr5∆) and 1.16 ± 0.069 (ubr1∆).

As to FLRQKICLMTLIETVFV [RPN9], the protein stability index was 1.37 ± 0.12 (doa10∆), 1.32 ± 0.12 (pdr5∆), 1.06 ± 0.14 (san1∆) and 1.94 ± 0.28 (ubr1∆).

With MLAAQDVAAKCKEVGIT [RPS14A], the protein stability index came out at 2.38 ± 0.057 (doa10∆), 2.38 ± 0.061 (pdr5∆), 2.07 ± 0.068 (san1∆) and 2.04 ± 0.041 (ubr1∆).

With SVRLQVTKILPHLIIQN [IRR1], the protein stability index turned out to be 1.65 ± 0.091 (doa10∆), 1.7 ± 0.064 (pdr5∆), 1.72 ± 0.094 (san1∆) and 1.7 ± 0.06 (ubr1∆).

For DKLYIHFVQEEPLAFYL [RGR1], the protein stability index (doa10∆) is 2.21 ± 0.041, the protein stability index (pdr5∆) turned out to be 2.35 ± 0.045, the protein stability index (san1∆) worked out at 2.4 ± 0.045 and the protein stability index (ubr1∆) came out at 2.32 ± 0.033.

Turning to LNAIVSKNSPAEDDVII [YJR042W/NUP85], the protein stability index by setting is: (doa10∆) 3.44 ± 0.14; (pdr5∆) 3.37 ± 0.17; (san1∆) 3.27 ± 0.087; (ubr1∆) 3.22 ± 0.12.
